In publication PMC2665237:
Numbering of substitutions follows the chain as printed. Where two headings read alike, the source gives them in different places.

Columns and labels:
[1] = target: T1, LGP2 RD K634E (human, UniProt Q96C10 537-678, K634E); assay: fluorescence anisotropy
T1 sequence: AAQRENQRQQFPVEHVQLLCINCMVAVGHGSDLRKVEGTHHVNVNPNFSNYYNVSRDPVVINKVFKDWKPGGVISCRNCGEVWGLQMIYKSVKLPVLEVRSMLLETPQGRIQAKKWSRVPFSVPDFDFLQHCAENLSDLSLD

[2] = target: T2, LGP2 RD K626E (human, UniProt Q96C10 537-678, K626E); assay: fluorescence anisotropy
T2 sequence: T1 sequence with K90E, E98K

[3] = target: T3, LGP2 RD K605E (human, UniProt Q96C10 537-678, K605E); assay: fluorescence anisotropy
T3 sequence: T1 sequence with K69E, E98K

[4] = target: T4, LGP2 RD N583D (human, UniProt Q96C10 537-678, N583D); assay: fluorescence anisotropy
T4 sequence: T1 sequence with N47D, E98K

[5] = target: T5, LGP2 RD L621A (human, UniProt Q96C10 537-678, L621A); assay: fluorescence anisotropy
T5 sequence: T1 sequence with L85A, E98K

[6] = target: T6, LGP2 RD P606K (human, UniProt Q96C10 537-678, P606K); assay: fluorescence anisotropy
T6 sequence: T1 sequence with P70K, E98K

[7] = target: T7, LGP2 RD H576Y (human, UniProt Q96C10 537-678, H576Y); assay: fluorescence anisotropy
T7 sequence: T1 sequence with H40Y, E98K

[8] = target: T8, LGP2 RD W604A (human, UniProt Q96C10 537-678, W604A); assay: fluorescence anisotropy
T8 sequence: T1 sequence with W68A, E98K

[9] = target: T9, LGP2 RD wt (human, UniProt Q96C10 537-678); assay: fluorescence anisotropy
T9 sequence: T1 sequence with E98K

[10] = target: T9, LGP2 RD wt; assay: competition
[11] = target: T9, LGP2 RD wt; assay: competition; remark: listed apart in the source

B1: 25 bp dsRNA (dsRNA)
RNA 1: GCUUGUCGGGAGCGCCACCCUCUGC
RNA 2: GCAGAGGGUGGCGCUCCCGACAAGC
[1]
  binding result: no binding
[2]
  Kd: 51 ± 5 nM
[3]
  Kd: 140 ± 16 nM
[4]
  Kd: 38 ± 4 nM
[5]
  Kd: 165 ± 26 nM
[6]
  Kd: 230 ± 10 nM
[7]
  Kd: 304 ± 10 nM
[8]
  Kd: 136 ± 6 nM
[9]
  Kd: 68 ± 6 nM

B2: 5'PPP dsRNA 19 bp (dsRNA)
RNA 1: GCAUGCGACCUCUGUUUGA
RNA 2: UCAAACAGAGGUCGCAUGC
modifications: 5'-triphosphate on sense strand
[10]
  binding result: binds

B3: 5'OH dsRNA 19 bp (dsRNA)
RNA 1: GCAUGCGACCUCUGUUUGA
RNA 2: UCAAACAGAGGUCGCAUGC
[11]
  binding result: binds
